Reference: patent publication US20220204585A1 (RUSH UNIVERSITY MEDICAL CENTER, published 2022)
Substitutions are numbered along the chain they refer to.

Experiments:
[1] = target: T1, CD11b A-domain CD11bA-D242A/F275S/F302G, construct BZ348014 (human, UniProt P11215 148-337); test: phage ELISA, phage diluted 1:5 on coated antigen (~5 ug/ml), anti-M13-HRP
T1 construct: the antigen on which the libraries were enriched; also called BZ348014 antigen
T1 chain: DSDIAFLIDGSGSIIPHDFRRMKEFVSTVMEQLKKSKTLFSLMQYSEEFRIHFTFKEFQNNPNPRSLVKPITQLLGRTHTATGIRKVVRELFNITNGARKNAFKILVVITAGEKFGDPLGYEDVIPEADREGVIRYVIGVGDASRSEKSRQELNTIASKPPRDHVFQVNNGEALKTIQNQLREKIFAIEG
Procedure: (§1) After 2 rounds of enrichment against the primary target, positive binders were identified by phage ELISA and analyzed by restriction mapping & sequencing for identification of unique clones. Small scale phage growths were diluted 1:5 in TBS+casein. Nunc Maxi-Sorp strip wells were coated at ˜5 ug/ml of each test protein overnight at 4° C. and blocked with TBS+casein. The diluted phage were applied and allowed to bind for 1 hour with shaking. The wells were washed 4 times with TBS+0.05% Tween20 and twice with TBS. Bound phage were detected by incubation for 1 hour with anti-M13-HRP and after washing as above, developed with TMB. Absorbance at 450 nm was read after acidification of the wells.

[2] = target: T2, CD11b A-domain CD11bA-D140A/F275S/F302G, construct BZ348010 (human, UniProt P11215 148-337); test: phage ELISA dilution series, phage diluted 1:5
T2 chain: T1 chain with D9A, A111D

[3] = target: T3, CD11b A-domain CD11bA WT (WT residues 132-321), construct BZ348007 (human, UniProt P11215 148-337); test: phage ELISA dilution series, phage diluted 1:5
T3 construct: Residues numbered on mature CD11b (signal peptide of 16 residues removed); also called His-TEV-CD11b

[4] = target: T4, CD11b A-domain CD11bA-D242A, construct BZ348011 (human, UniProt P11215 148-337); test: phage ELISA dilution series, phage diluted 1:5
T4 construct: MIDAS residue D242 replaced with alanine (no MIDAS metal)
T4 chain: T1 chain with S144F, G171F

[5] = target: T5, CD11b A-domain CD11bA-F275S/F302G, construct BZ348013 (human, UniProt P11215 148-337); test: phage ELISA dilution series, phage diluted 1:5
T5 chain: T1 chain with A111D

[6] = target: T1, CD11b A-domain …; test: phage ELISA dilution series, phage diluted 1:5
[7] = target: T6, CD11b A-domain CD11bA-D140A, construct BZ348008 (human, UniProt P11215 148-337); test: phage ELISA dilution series, phage diluted 1:5
T6 construct: MIDAS residue D140 replaced with alanine (no MIDAS metal)
T6 chain: T1 chain with D9A, A111D, S144F, G171F

[8] = target: T2, CD11b A-domain …; test: phage ELISA dilution series, phage diluted 1:50
[9] = target: T3, CD11b A-domain CD11bA WT (WT residues …); test: phage ELISA dilution series, phage diluted 1:50
[10] = target: T4, CD11b A-domain CD11bA-D242A, construct …; test: phage ELISA dilution series, phage diluted 1:50
[11] = target: T5, CD11b A-domain CD11bA-F275S/F302G, …; test: phage ELISA dilution series, phage diluted 1:50
[12] = target: T1, CD11b A-domain …; test: phage ELISA dilution series, phage diluted 1:50
[13] = target: T6, CD11b A-domain CD11bA-D140A, construct …; test: phage ELISA dilution series, phage diluted 1:50
[14] = target: T2, CD11b A-domain …; test: phage ELISA dilution series, phage diluted 1:16
[15] = target: T3, CD11b A-domain CD11bA WT (WT residues …); test: phage ELISA dilution series, phage diluted 1:16
[16] = target: T4, CD11b A-domain CD11bA-D242A, construct …; test: phage ELISA dilution series, phage diluted 1:16
[17] = target: T5, CD11b A-domain CD11bA-F275S/F302G, …; test: phage ELISA dilution series, phage diluted 1:16
[18] = target: T1, CD11b A-domain …; test: phage ELISA dilution series, phage diluted 1:16
[19] = target: T6, CD11b A-domain CD11bA-D140A, construct …; test: phage ELISA dilution series, phage diluted 1:16
[20] = target: T2, CD11b A-domain …; test: counterscreen phage ELISA on coated antigen
Procedure: as §1

[21] = target: T3, CD11b A-domain CD11bA WT (WT residues …); test: counterscreen phage ELISA on coated antigen
Procedure: as §1

[22] = target: T4, CD11b A-domain CD11bA-D242A, construct …; test: counterscreen phage ELISA on coated antigen
Procedure: as §1

[23] = target: T5, CD11b A-domain CD11bA-F275S/F302G, …; test: counterscreen phage ELISA on coated antigen
Procedure: as §1

[24] = target: T1, CD11b A-domain …; test: counterscreen phage ELISA on coated antigen
Procedure: as §1

[25] = target: T6, CD11b A-domain CD11bA-D140A, construct …; test: counterscreen phage ELISA on coated antigen
Procedure: as §1

B1: Clone 14 149-014-14 (VK-Linker-VH) (scFv)
scFv: DVVMTQSPLSLPATLGQPASISCRSSQSLVYTDGNTYLNWFQQRPGQSPRRLIYKVSNRDSGVPDRFSGSGSGTHFTLKISRVEAEDVGVYYCMQGTHWPPTFGQGTKVEIKEGKSSGSGSESKASEVQLVQSGAEVKKPGASVKVSCKASGGTFSSYAISWVRQAPGQGLEWMGGIIPIFGTANYAQKFQGRVTITADESTSTAYMELSSLRSEDTAVYYCASSGVDYWGQGTLVTVSS
notes: From the naive human scFv phage display library
[1]
  Absorbance at 450 nM: 0.598
[2]
  Absorbance at 450 nM: 0.046
[3]
  Absorbance at 450 nM: 0.557
[4]
  Absorbance at 450 nM: 0.2
[5]
  Absorbance at 450 nM: 1.38
[6]
  Absorbance at 450 nM: 0.782
[7]
  Absorbance at 450 nM: 0.372
[8]
  Absorbance at 450 nM: 0.04
[9]
  Absorbance at 450 nM: 0.06
[10]
  Absorbance at 450 nM: 0.045
[11]
  Absorbance at 450 nM: 0.078
[12]
  Absorbance at 450 nM: 0.059
[13]
  Absorbance at 450 nM: 0.047
[14]
  Absorbance at 450 nM: 0.038
[15]
  Absorbance at 450 nM: 0.101
[16]
  Absorbance at 450 nM: 0.054
[17]
  Absorbance at 450 nM: 0.278
[18]
  Absorbance at 450 nM: 0.356
[19]
  Absorbance at 450 nM: 0.08
[20]
  Absorbance at 450 nM: 0.659
[21]
  Absorbance at 450 nM: 0.22
[22]
  Absorbance at 450 nM: 0.259
[23]
  Absorbance at 450 nM: 0.953
[24]
  Absorbance at 450 nM: 1.06
[25]
  Absorbance at 450 nM: 0.38

B2: Clone 13 149-014-13 VH only (other)
VH: EVQLLESGGGLVQPGGSLRLSCAASGFTFSSDLMSWVRQAPGKGLEWVSAISGSGGSTYYADSVKGRFTISRDNSKNTLYLQMNSLRAEDTAVYYCAKNEVIFDYWGQGTLVTVSSASTKGLSMFDYWGQGTKVEIK
[1]
  Absorbance at 450 nM: 0.499
[20]
  Absorbance at 450 nM: 0.495
[21]
  Absorbance at 450 nM: 0.169
[22]
  Absorbance at 450 nM: 0.183
[23]
  Absorbance at 450 nM: 0.954
[24]
  Absorbance at 450 nM: 0.866
[25]
  Absorbance at 450 nM: 0.228

B3: Clone 6 149-014-6 (VL-linker-VH) (scFv)
scFv: QSVLTQPPSASGTPGQRVTISCSGSSSNIGSNYVSWYQQLPGTAPKLLIYDNNKRPSGIPDRFSGSKSGTSATLGITGLQTGDEADYYCGTWDSSLSALYVFGAGTKLTVLGEGKSSGSGSESKASQVQLQESGPGLVKPSETLSLTCSVSGGSTSSYYWSWIRQPPGKGLEWIGYISNSGSTNYNPSLKSRVTMSIDTSNNQFSLKLSSVTAADTAVYYCASHLGATWRWGQGTLVTVSS
notes: as for B1
[1]
  Absorbance at 450 nM: 0.641
[20]
  Absorbance at 450 nM: 1.51
[21]
  Absorbance at 450 nM: 0.567
[22]
  Absorbance at 450 nM: 0.169
[23]
  Absorbance at 450 nM: 1.3
[24]
  Absorbance at 450 nM: 1.25
[25]
  Absorbance at 450 nM: 0.058

B4: Clone 5 149-014-5 (VL-Linker-VH) (scFv)
scFv: SSELTQDPAVSVALGQTVRITCQGDSLRSYYASWYQQKPGQAPVLVIYGKNNRPSGIPDRFSGSTSGNFASLTITGAQAEDGADYYCHSRDSSGNHLVFGGGTKLTVLGEGKSSGSGSESKASEVQLVQSGAEVKKPGESLKISCKGSGYSFTSYWIGWVRQMPGKGLEWMGIIYPGDSDTRYSPSFQGQVTISADKSISTAYLQWSSLKASDTAMYYCARRARGAFDIWGQGTLVTVSS
notes: as for B1
[1]
  Absorbance at 450 nM: 1.37
[20]
  Absorbance at 450 nM: 1.74
[21]
  Absorbance at 450 nM: 1.78
[22]
  Absorbance at 450 nM: 1.77
[23]
  Absorbance at 450 nM: 1.65
[24]
  Absorbance at 450 nM: 1.69
[25]
  Absorbance at 450 nM: 1.85
